Data from the nanobody polyreactivity screen of Harvey et al. (2022).

test: yeast display, Sf9 membrane polyspecificity reagent, FACS + sequencing; frameworks hold sequencing errors
How it was run: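 Using colony PCR, genes from sorted yeast display clones were amplified, then sequenced on MiSeq at 2 × 250 and filtered by CDR length. The clones had been stained with 10% biotinylated, detergent-solubilized Sf9 membrane reagent for 1 hour at 4 °C and sorted by FACS into low and high (top ~1%) gates on anti-HA and streptavidin fluorescence. Polyreactivity labels come from the gate of origin.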

Row | Sequence | polyreactivity (PSR sort gate)
1 | QVQLVESGGGLVQAGGSLRLSCAASGSIFYYYAMGWYRQAPGTERELVAAIYNGGSTYYADSVKGRFTISRDNAKNTVYLQMNSLKPEDTAVYYCNAGYSYWYRDLGYDSWGQGTQVTVSS | low polyreactivity
2 | QVQLVESGGGLVQAGGSLRLSCAASGSIFGSYAMGWYRQAPGKERELVAAISYRGGRTYYADSVKGRFTISRDNAKNSVYLQMNSLKPEDTAVYYCNARARNSPPYDYWGQGTQVTVSS | high polyreactivity
3 | QVQLVESGGGLVQAGGSLRLSCAASGRTFRYYAMGWYRQAPGKERELVAAITSVGGTYYADSVKGRFTISRDNAKNTVYLQMNSLKPEDTAVYYCAVTSYKYRKYDYWGQGTQVTVSS | high polyreactivity
4 | QVQLVESGGGLVQAGGSLRLSCAASGSIFYENVMGWYRQAPGKERELVAGISRSGGRTYYADSVKGRFTISRDNAKNTVYLQMNSLKPEDTAVYYCNAARVYLSEWGQGTQVTVSS | high polyreactivity
5 | QVQLVESGGGLVQAGGSLRLSCAASGSIFDGYAMGWYRQAPGKETELVARITWSGGSTYYADSVKWRFTISRDNAKNTVYLQMNSLKPEDTAVYYCNVDQVHPTRGLDYWGQGTQVTVSS | low polyreactivity
6 | QVQLVESGGGLVQAGGSLRLSCAASGSTFATNTMGWYRQAPGKERELVAAITSGGSTYYADSVKGRFTISRDNAKNTVYLQMNSLKPEDTAVYYCAVRGVYYYHRAFDYWGQGTQVTVSS | high polyreactivity
7 | QVQLVESGGGLVQAGGSLRLSCAASGSIFGLNAMGWYRQPPGKERELVAAINSDGDTYYADSVKGRFTISRDNAKNTVYLQMNSLKPEDTAVYYCSADYYWDPFDSNFGHVPQEYESWGQGTQVTVSS | low polyreactivity
8 | QDQLVDSGGGLVQAGGSLSLSCAASGSILRTYAMGWYRQAPGKERELVAAISYRGVSTYYADSVKGRFTISRDNAKNTVYLQMNSLKPEDTAVYYCAADQLSDEYDYWGQGTQVTVSS | high polyreactivity
9 | QVQLVESGGGLVQAGGSLRLISAASGSTFDSYAMGWYRPAPGKERELVAAITRSVGSTYYADSVKGRFTISRDNAKNTVYLHMNSVKPEVTAVYYCAARGEWAIYVEFDYWGQGTQVTVSS | low polyreactivity
10 | QVQLVESGGGLVQAGGSLRLSCAASGITFVKYAMGWYRQAPGKERELVAAISGSGGSTSYADSVKGRFTISRDNAKNTVYLQMNSLKPEDTAVYYCNKAIVRYPKTRDYWGQGTQVTVSS | low polyreactivity
11 | QVQLEESGGCLVQAGGSLRLSCAASGSIFWYNAMGRSRQAPGKERELVAAISYSGDRTYYADSVKGRFTISRDNAKNTGYLLMNSLKPEVTAVYYCAKAGTCFYNSWWEDSWGQGTQVTLSS | low polyreactivity
12 | QVQLVESGGGLVQAGGSLRLSCAASGRIFWANAMGWYRQAPGKERELVAAISRRGGSTYYADSVKGRFTISRDNAKNTVSLQMNSLKPEDTAVYYCNAVSPYTSDDYDYWGQGTQVTVSS | high polyreactivity
13 | QVQLVESGGGLVQAGGSLRLSCAASGYIFDYYAMGWYRQAPGKERELVAGISRRGGSTYYADSVKGRFTISRDNAKNTVYLQMNSLKPEDTAVYYCAGLGDDATSYGYWGQGTQVTVSS | high polyreactivity
14 | QVQLVESGGGLGQAGGSLRLSCAASGFTIIYYAMGWYRQAPGKERELVAAISRRGGRTYYADSVKGRFTISRDNAKNTVYLQMNSLKPEDTAVYYCAADGSGTSISYRYKHDYWGQGTQVTVSS | high polyreactivity
15 | QVQLVESGGGLVQAGGSLRLSCAASGSIFGPYAMGWYRQAPGKERELVAAITWSGDSTYYADSVKGRFTISRDNAKNTVYLQMNSLKTEDTAVYYCAAETFIWGQGTQVTVSS | low polyreactivity
16 | QVQLVESGGGLVQAGGSLRLSCAASGIIFATYAMGWYRQAPGKERELVASISTGDSTNYADSVKGRFTISRDNAKNTVYLQMNSLKPEDTAVDYCNADSYPYYVYGSNDYWGQGTQVTVSS | low polyreactivity

Row | Sequence | polyreactivity (PSR sort gate)
17 | QVQLVESGGGLVQAGGSLRLSCAASGSTFTRYAMGWYRQAPGKERELVAAISGGGSTNYADSVKGRFTISRDNANNTVYLQKNSLKPEVTAVYFCAARVRTTGYSQMYYWGQGTQVTVSS | low polyreactivity
18 | QVQLVESGGGLVQAGGSLRLSCAASGRTFYGYAMGLYRQAPGKERELGASIRQSAGRTYYADSVKGRFTISRDNAMNTVYLQMNSLNPEDTAVYYCAASIFLRSFYQQGNYWGQGTQVTVSS | high polyreactivity
19 | QVQLVESGGGLVQAGGSHRLSCAASGRIIWWYAMGWYRQAPGKEREFVASISSTGSTSYADSVKGRFTISRDNAKITVYFQMNILKPEDTAVYYCAKEGIRHQDYNLSNDYWGQGTHVTVSS | low polyreactivity
20 | QVQHVESGGGLVQAGGSLRLSCAASGSIFGANAMGWYRQAPGNERQLVAAITSGGSTTYADSVKGRFTISRDNAKNTVYLQMNSLKPDDTAVYYCAADESTPYWPVDNFDYWGQGTQVTVSS | low polyreactivity
21 | QVQLVESGGGLVQAGGSLRLSCAASGRTFARNAMGWYRQAPGKERELVAAITSIGTRTYYADSVKARFTISRDNAMNTVYLQMNSLKREDTAVYYCNKKRTADYDYWGQGTQVTVSS | low polyreactivity
22 | QVQLVESGGGLVQAGGSLRLSCAASGRTFVGYVMGWDRQAPGKERELVAAISTSGGRTYYADSVKGRFTISRDNAKNTGYLQMNSLKPEDTAVYYCNAVSKQPIGYEYWGQGSQVTVSS | high polyreactivity
23 | QVQLVESGGGLVQAGGSLRLSCAASGRTLYKNTMGWYRPAPGKERELVAAINYSGGSTYYADSVKGRFTISRDNAKNTVYLQMNSLKPEDTAVYYCAADYYDSTGEYDYWGQGTQVTVSS | high polyreactivity
24 | QVQLVESGGGLVQAGGSLRLSCAASGSIFSRNAMGWYRQAPGKERELVAAISYSSGSTYYADSVKGRFTISRDHAKNTVYLQMNSLTPEDTAVYYCAADTTKLQGVEGDYWGQGTQVTVSS | low polyreactivity
25 | QVQLVESGGGLVQAGGSLRLSCAASGSIFSFNVMGWYRQAPGKERELVATITGGGSTNYADSVKGRFTISRDNAKNTVYLQMNSLIPEDTAVYYCAARPVNGGILEYWGQGTQVTVSS | low polyreactivity
26 | QVQLVESGGGLVQAGGSLRLSCAASGSIFGKNAMGWYRQAPGKDRELVAAISWSGGRTYYADSVKGRFTISRDNAKNSVYLQMNSLKPEDTAVYYCAASWWGVARGSSRKKYDYWGQGTQVTVSS | high polyreactivity
27 | QVKLVESGGGLVQAGGRLRLTCAASGSTISGYAMGWYRQAPGKERQLVATITGGGRTYYADSVKGRFTISRDNAKNTVYLQMNSLKPEDSAVYYFAVRGYHQYKYGYWGQGTQVTVSS | high polyreactivity
28 | QVQLVESGGGLVQAGGSLRLSCAASGSTFLNYAMGWYRQAPGKERELVAAISGRGGRTYYADSVKGRFTISRDNAKNTVYLQMNSLTPEDTAVYYCAARKWVSYTSYDYWGQGTQVTVSS | high polyreactivity
29 | QVQLVESGGGLVQAGGSLRLICAASGSTLTSNSMGWYRQAPGKERELVASISRRGDSTNYADSVKGRFTISRDNAKNTVYLQMNSLKPEDTAVYYCVAYGYFQSNLWSEFDYWGQGTQVTVSS | low polyreactivity
30 | QVQLVESGGGLVQAGGSLRLSCAASGRTFYSNAKGWSRQAPGKERELVAGISKRGTITYYADSVKGRFTISRDNAKNTVYLQMNSLKPEDTAVYYCAAKPPSYIVKGDGRDDYWGQGTQVTVSS | high polyreactivity
31 | QVQLVESGGGLVQAGGSLRFSCAASGSTFVYNAMGWYRQAAGQERELVAVITYRGGRTYYADSVKGRFTISRDNAKNTVYLQINSLKPEDTAVYYCAAQTFRYRKKLDYWGQGTQVTVSS | high polyreactivity
32 | QVQLVESGGGLVQAGGSLRLSCAASGSTFATYTMGWYRQAPGKERELVAAISSRGGSTYYADSVKGRFTISRDNAKNTGYLQMNSLKPEDTAVYYCNARRSTDPARYYWGQGSQVTVSS | high polyreactivity
